Test results from US20130136691A1, “GASTRIN […] PEPTIDE COMPOUNDS” (priority 2008, published 2013).
Each block holds one substance with its values, some of them ahead of it.

Tests used:
[1] = biological target: gastrin releasing peptide receptor (GRP-R) (human) (UniProt P30550); test: competition with 67Ga-AMBA, PC-3 cells
[2] = biological target: gastrin releasing peptide receptor (GRP-R) (human) (UniProt P30550); test: competition with 177Lu-AMBA, PC-3 cells
[3] = biological target: gastrin releasing peptide receptor (GRP-R) (human) (UniProt P30550); test: competition with 125I-universal ligand, receptor autoradiography on human tumour tissue
[4] = biological target: human neuromedin-B preferring receptor (NMB-R) (human) (UniProt P28336); test: as above
Chain of human neuromedin-B preferring receptor (NMB-R) (human) (P28336 whole entry): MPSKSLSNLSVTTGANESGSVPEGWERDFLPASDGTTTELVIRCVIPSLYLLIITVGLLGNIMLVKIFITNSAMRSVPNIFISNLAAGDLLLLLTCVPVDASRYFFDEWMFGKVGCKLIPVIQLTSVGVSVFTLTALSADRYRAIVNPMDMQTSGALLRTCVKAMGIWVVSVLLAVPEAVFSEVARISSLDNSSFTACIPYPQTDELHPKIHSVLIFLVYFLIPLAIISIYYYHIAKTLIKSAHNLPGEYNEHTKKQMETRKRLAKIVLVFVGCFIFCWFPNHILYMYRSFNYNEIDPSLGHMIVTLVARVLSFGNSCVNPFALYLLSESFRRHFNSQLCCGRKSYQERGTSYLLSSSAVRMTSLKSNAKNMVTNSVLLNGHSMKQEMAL

[5] = biological target: gastrin releasing peptide receptor (GRP-R) (human) (UniProt P30550); test: saturation binding, PC-3 cells, calculated from Bmax
[6] = biological target: gastrin releasing peptide receptor (GRP-R) (human) (UniProt P30550); test: saturation binding of carrier-added radioligand, PC-3 cells, 4 C

Chain of gastrin releasing peptide receptor (GRP-R) (human) (P30550 whole entry): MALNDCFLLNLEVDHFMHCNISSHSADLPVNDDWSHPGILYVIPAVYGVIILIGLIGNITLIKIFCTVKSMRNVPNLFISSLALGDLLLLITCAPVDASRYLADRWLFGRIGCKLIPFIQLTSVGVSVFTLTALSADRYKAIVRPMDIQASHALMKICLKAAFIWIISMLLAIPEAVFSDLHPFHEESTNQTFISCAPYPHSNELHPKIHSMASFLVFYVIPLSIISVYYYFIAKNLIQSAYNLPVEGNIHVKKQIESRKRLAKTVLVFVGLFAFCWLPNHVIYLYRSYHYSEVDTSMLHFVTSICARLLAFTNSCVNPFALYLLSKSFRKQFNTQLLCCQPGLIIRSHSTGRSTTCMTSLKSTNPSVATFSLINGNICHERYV

- EC50 [1]: 1000 pM
- EC50 [2]: 1150 pM
Substance: Ga-AMBA (non-radioactive gallium complex of AMBA) (peptide)

- IC50 [3]: 700 pM
- IC50 [4]: 800 pM
Substance: Universal ligand ([DTyr^6, βAla^11, Phe^13, Nle^14]-BBN(6-14)) (peptide)

- Receptors/cell (receptors/cell) [5]: 242000
- Binding capacity (Bmax) (fmoles/1 × 10^6 cells) [6]: 402
- Kd [6]: 460 pM
Substance: ^67Ga-AMBA (peptide)
